The target in test [1] is T1, FMC63 IgG.
T1 construct: Murine monoclonal antibody to human CD19; also called FMC63 IgG antibody; biotinylated FMC63 IgG
The test can be described thus: yeast display FACS selection with biotinylated FMC63 IgG, second sort. From the text:
(§1) As in Example 1, a yeast library was generated using nested PCR and the primers in Table 3.

Test [2] addresses T2, FMC63 scFv (biotinylated).
T2 construct: Whole scFv entry (VL-(G4S)3-VH); also called FMC63-scFv monomer; biotinylated FMC63 scFv
Briefly: flow cytometry (MFI) of yeast clone with biotinylated FMC63 scFv and streptavidin-PE.

Test [3] deals with T2, FMC63 scFv. Briefly: yeast-display FACS titration with biotinylated FMC63 scFv.
Test [4] addresses T1, FMC63 IgG. The test can be described thus: yeast-display FACS (MFI) titration with biotinylated FMC63 IgG, 0.01-1000 nM.
Test [5] has as its target T1, FMC63 IgG. The test can be described thus: yeast display FACS selection with biotinylated FMC63 IgG, first sort.
Text: as §1

As usually defined, the Kd is a measure of binding affinity in units of concentration. Low values mean tighter binding, high ones weaker binding.

T1 sequence (VH, as listed by the source, chain 1 of 2): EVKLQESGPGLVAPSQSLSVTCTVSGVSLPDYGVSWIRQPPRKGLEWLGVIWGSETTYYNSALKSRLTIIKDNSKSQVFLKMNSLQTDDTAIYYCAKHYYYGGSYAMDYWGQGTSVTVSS
T1 sequence (VL, as listed by the source, chain 2 of 2): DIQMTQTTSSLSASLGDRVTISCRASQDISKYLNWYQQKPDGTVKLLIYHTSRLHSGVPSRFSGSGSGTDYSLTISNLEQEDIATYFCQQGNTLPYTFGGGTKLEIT
T2 sequence (scFv, as listed by the source): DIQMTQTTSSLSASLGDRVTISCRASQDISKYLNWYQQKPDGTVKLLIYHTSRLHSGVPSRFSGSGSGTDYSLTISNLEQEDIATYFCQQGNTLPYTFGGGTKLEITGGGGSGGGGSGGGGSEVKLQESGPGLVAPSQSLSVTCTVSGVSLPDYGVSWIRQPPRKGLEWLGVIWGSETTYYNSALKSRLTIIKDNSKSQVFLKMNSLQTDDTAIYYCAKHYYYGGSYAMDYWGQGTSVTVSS

For RICPWGCKEL [FMC63 Mimotope RICPWGCKEL], the binding result with FMC63 IgG [1] is listed as “binds”.

Turning to RLCPWSCLEI [FMC63 Mimotope RLCPWSCLEI], the binding result in the test with FMC63 IgG [1] is “binds”.

Consider RICPWNCKELPTPYMMFDM [FMC63 mimotope K-A3 RICPWNCKELPTPYMMFDM], for which, in the test with FMC63 scFv [2], the affinity, expressed as Kd, was 22.1 nM.

For RICPWSCVKQ [FMC63 Mimotope RICPWSCVKQ], the binding result in the test with FMC63 IgG [1] is “binds”.

As to RMCPWSCYEL [FMC63 Mimotope (C5) RMCPWSCYEL], the Kd with FMC63 scFv [3] was 238 nM; with FMC63 IgG [4], 322 nM.

RLCPWECRVL [FMC63 Mimotope RLCPWECRVL]: the binding result with FMC63 IgG [5] was “binds”.

With RMCPWSCRPH [FMC63 Mimotope (A8) RMCPWSCRPH], the Kd with FMC63 IgG [4] is 397 nM.

As for RICPWNCKELYWLPDE [FMC63 mimotope K-A11 RICPWNCKELYWLPDE], the Kd with FMC63 scFv [2] is 16.8 nM.

Take RVCPWSCVEQ [FMC63 Mimotope RVCPWSCVEQ]: the binding result in the test with FMC63 IgG [5] is “binds”.

Regarding RLCPWSCVEQ [FMC63 Mimotope RLCPWSCVEQ], the binding result with FMC63 IgG [1] is on record as “binds”.

In the test with FMC63 scFv [2], RICPWNCKELPSPPRIFGNR [FMC63 mimotope K-C2 RICPWNCKELPSPPRIFGNR] displayed a Kd of 14.8 nM.

RICPWACLSL [FMC63 Mimotope RICPWACLSL]: the binding result in the test with FMC63 IgG [5] was “binds”.

Take RLCPWSCMPR [FMC63 Mimotope RLCPWSCMPR]: in the test with FMC63 IgG [5], the binding result was “binds”.

As for RLCPWHCAII [FMC63 Mimotope RLCPWHCAII], the binding result in the test with FMC63 IgG [5] is “binds”.

With PPPRICPWNCKELPLDWPW [FMC63 mimotope K-B5 PPPRICPWNCKELPLDWPW], the Kd with FMC63 scFv [2] stood at 23.8 nM.

For the molecule RICPWSCMVV [FMC63 Mimotope (B7) RICPWSCMVV], binding in the test with FMC63 IgG [4] was put at a Kd of 376 nM.

Regarding RLCPWSCIKL [FMC63 Mimotope RLCPWSCIKL], the binding result in the test with FMC63 IgG [1] was “binds”.

Regarding RICPWDCKPI [FMC63 Mimotope RICPWDCKPI], the binding result with FMC63 IgG [1] was “binds”.

In the test with FMC63 scFv [2], AKRRERDYVGRICPWNCKELHPDTRHRIPV [FMC63 mimotope K-A10 AKRRERDYVGRICPWNCKELHPDTRHRIPV] gave a Kd of 18.7 nM.

B1: FMC63 Mimotope (H1) RVCPWSCMPI (peptide)
peptide: RVCPWSCMPI
notes: Not the 1D3 mimotope that is also called H1
With B1, the Kd is 178 nM with FMC63 scFv [3] and 199 nM with FMC63 IgG [4].

Consider PLSRICPWNCKELYWLPQR [FMC63 mimotope K-A5 PLSRICPWNCKELYWLPQR], for which, in the test with FMC63 scFv [2], the affinity, expressed as Kd, was 12.8 nM. This lies in the double-digit nanomolar range.

On to QFQRICPWNCKELYWLPDQ [FMC63 mimotope K-F5 QFQRICPWNCKELYWLPDQ], for which the Kd in the test with FMC63 scFv [2] was 13.2 nM.

Take RLCPWDCLIL [FMC63 Mimotope RLCPWDCLIL]: the binding result with FMC63 IgG [5] was “binds”.

Consider RRCPWSCKKQ [FMC63 Mimotope (A12) RRCPWSCKKQ], for which the values for the Kd with FMC63 scFv [3] and with FMC63 IgG [4] were 240 nM and 540 nM, respectively.

Take RICPWNCSKL [FMC63 Mimotope RICPWNCSKL]: in the test with FMC63 IgG [5], the binding result is “binds”.

As to RLCPWACQEQ [FMC63 Mimotope (C7) RLCPWACQEQ], the Kd with FMC63 scFv [3] came to 219 nM; with FMC63 IgG [4], 252 nM.

The molecule AGTRICPWNCKELYWLPDE [FMC63 mimotope K-D11 AGTRICPWNCKELYWLPDE] had a Kd with FMC63 scFv [2] of 15.9 nM. This counts as double-digit nanomolar.

For RLCPWNCIHW [FMC63 Mimotope RLCPWNCIHW], the binding result with FMC63 IgG [5] is on record as “binds”.

As to RLCPWSCREL (Parent of the alanine scan) [FMC63 Mimotope (G9) RLCPWSCREL], the Kd with FMC63 scFv [3] is 50.6 nM; in the test with FMC63 IgG [4] it was 25.7 nM.

For the molecule RLCPWNCQEL [FMC63 Mimotope RLCPWNCQEL], the binding result with FMC63 IgG [1] was “binds”.

Turning to RLCPWDCKEL [FMC63 Mimotope RLCPWDCKEL], in the test with FMC63 IgG [1], the binding result was “binds”.

As to RICPWSCREL [FMC63 Mimotope (H11) RICPWSCREL], the figures for the Kd with FMC63 scFv [3] and with FMC63 IgG [4] were 38.6 nM and 10.3 nM, respectively.

Consider RLCPWNCSEL [FMC63 Mimotope RLCPWNCSEL], for which the binding result in the test with FMC63 IgG [1] is “binds”.

In the case of RMCPWNCREL [FMC63 Mimotope RMCPWNCREL], the binding result in the test with FMC63 IgG [1] was “binds”.

Turning to RLCPWDCREL [FMC63 Mimotope (F8) RLCPWDCREL], the Kd was found to be 41.5 nM with FMC63 scFv [3] and 10.6 nM with FMC63 IgG [4].

As to RICPWSCVEL [FMC63 Mimotope RICPWSCVEL], the binding result with FMC63 IgG [1] is “binds”.

In the case of RICPWSCMEL [FMC63 Mimotope RICPWSCMEL], the binding result in the test with FMC63 IgG [1] is “binds”.

In the case of RLCPWNCRQL [FMC63 Mimotope RLCPWNCRQL], in the test with FMC63 IgG [1], the binding result was “binds”.

Regarding RLCPWACRQL [FMC63 Mimotope RLCPWACRQL], the binding result with FMC63 IgG [5] is “binds”.

As to RICPWSCRPL [FMC63 Mimotope RICPWSCRPL], the binding result with FMC63 IgG [1] is recorded as “binds”.

Consider RLCPWNCREL [FMC63 Mimotope (G11) RLCPWNCREL], for which the Kd with FMC63 scFv [3] stood at 38.4 nM; in the test with FMC63 IgG [4], 18.2 nM.

For RICPWACVEL [FMC63 Mimotope (H8) RICPWACVEL], the Kd stood at 38.9 nM in the test with FMC63 scFv [3] and 9.5 nM in the test with FMC63 IgG [4].

For RICPWSCIEL [FMC63 Mimotope RICPWSCIEL], the binding result in the test with FMC63 IgG [1] was “binds”.

On to RLCPWKCREL [FMC63 Mimotope RLCPWKCREL], for which, in the test with FMC63 IgG [1], the binding result is given as “binds”.

On to RLCPWSCVPI [FMC63 Mimotope (E6) RLCPWSCVPI], for which the Kd was determined as 126 nM with FMC63 scFv [3] and 102 nM in the test with FMC63 IgG [4].

Turning to RLCPWSCIPF [FMC63 Mimotope RLCPWSCIPF], the binding result in the test with FMC63 IgG [1] is “binds”.

These data come from patent US20210338833A1 (MIT, published 2021).
